Experimental data taken from patent US7247438.
Each block holds one substance with its values, some of them ahead of it.

Legend:
[1] = target: VSV8/Kb complex (vesicular stomatitis virus; mouse) (UniProt P01887); assay: cell-based or functional assay
[2] = target: activated thymic caspase (~17 kD subunit) of VSV8-triggered N15 TCRtg RAG-2-/- H-2b mouse thymocytes (mouse); assay: cell-based or functional assay
[3] = target: activated thymic caspase (~17 kD subunit) of VSV8-triggered N15 TCRtg RAG-2-/- H-2b mouse thymocytes (mouse); assay: preincubation with zVADfmk, competitor biotin-DEVDamk, thymic lysate, streptavidin-HRP blot
mouse CD3ε (mouse) = mouse CD3ε (mouse) (UniProt P22646); assay: cell-based or functional assay

Substance: N15 TCR
- TdT positive cells per mm2 (TUNEL), FTOC N15tg #1, VSV8 (TdT positive cells / mm2) [1]: 429
- TdT positive cells per mm2 (TUNEL), FTOC N15tg #2, VSV8 (TdT positive cells / mm2) [1]: 456
- TdT positive cells per mm2 (TUNEL), FTOC N15tg #3, VSV8 (TdT positive cells / mm2) [1]: 441

- TdT positive cells per mm2 (TUNEL), FTOC N15tg #1, zVADmk + VSV8 (TdT positive cells / mm2) [2]: 360
- TdT positive cells per mm2 (TUNEL), FTOC N15tg #2, zVADmk + VSV8 (TdT positive cells / mm2) [2]: 525
- TdT positive cells per mm2 (TUNEL), FTOC N15tg #3, zVADmk + VSV8 (TdT positive cells / mm2) [2]: 461
Substance: N-(Z-Valinylalanyl)aspartic acid methyl ketone, b-methyl ester (peptide)

- molar excess over biotin-DEVDamk at which the ~17 kD band is no longer detectable [3]: 100 to 1000 fold
- TdT positive cells per mm2 (TUNEL), FTOC N15tg #1, zVADfmk + VSV8 (TdT positive cells / mm2) [2]: 6
- TdT positive cells per mm2 (TUNEL), FTOC N15tg #2, zVADfmk + VSV8 (TdT positive cells / mm2) [2]: 1
- TdT positive cells per mm2 (TUNEL), FTOC N15tg #3, zVADfmk + VSV8 (TdT positive cells / mm2) [2]: 2
Substance: N-benzyloxycarbonyl-Val-Ala-Asp(OMe)-fluoromethylketone (peptide)

- percent DP thymocytes in C57BL/6 FTOC after 18 hours with 200 mg/ml 2C11 mAb (FACS) (mouse CD3ε (mouse)): 37%
Substance: anti-CD3ε specific hamster anti-mouse mAb 145-2C11 (antibody)
